Data reported in patent publication US20240018513A1, “SYNTHETIC INTRONS FOR TARGETED GENE EXPRESSION” (FRED HUTCHINSON CANCER CENTER, priority 2020, published 2024).
Changes are numbered by the printed parent chain.

B1: intron_control: 250 nt parent synthetic intron from MTERFD3 intron 1 (first 100 and last 150 nt); SEQ ID NO 63/71 (nucleic acid)
DNA 1: GTGAGTCGCCCCCTTCCTCTGCTCCTGGGCGTGTTCCTCACCAGCGGCGCCGCAGCGGTCAGGGCCCGCAAAACCCCACGCCTCGCCAGACGCTCAGCTCCAGGAAGCAAATGCAGCTGGTGCAGGAGAGGGAAATGGGAATTAGGGTGGTGGCAGAGCCCAAAGAGGCCTTGTAGGCCATGGTAAGGCATTTCTATGTTTTATTTTACTTTGTCTTTATCCTAAAATGCCATTGGCAAGTTTATTGCAG
DNA 2: B1 DNA 1
B2: intron_13121: 150 nt control synthetic intron, GT_to_CC + AG_to_CC splice site mutations; SEQ ID NO 56/64 (nucleic acid)
DNA 1: CCGAGTCGCCCCCTTCCTCTGCTCCGAGAGGGAAATGGGAATTAGGGTGGTGGCAGAGCCCAAAGAGGCCTTGTAGGCCATGGTAAGGCATTTCTATGTTTTATTTTACTTTGTCTTTATCCTAAAATGCCATTGGCAAGTTTATTGCCC
DNA 2: B2 DNA 1
B3: intron_2258: 100 nt MTERFD3 intron 1-derived synthetic intron, deletion 15to65; SEQ ID NO 57/65 (nucleic acid)
DNA 1: GTGAGTCGCCCCCTTAGGCCTTGTAGGCCATGGTAAGGCATTTCTATGTTTTATTTTACTTTGTCTTTATCCTAAAATGCCATTGGCAAGTTTATTGCAG
DNA 2: B3 DNA 1
modifications: expressed or natural sequence
B4: intron_2790: 150 nt synthetic intron, mutation 148_AtoG (canonical 3′ss); SEQ ID NO 59/67 (nucleic acid)
DNA 1: B2 DNA 1 with C1G, C2T, C149G, C150G
DNA 2: B2 DNA 1 with C1G, C2T, C149G, C150G
B5: intron_4095: 150 nt synthetic intron, 138_AtoC-139_GtoC (cryptic 3′ss at −11 removed); SEQ ID NO 60/68 (nucleic acid)
DNA 1: B2 DNA 1 with C1G, C2T, A139C, G140C, C149A, C150G
DNA 2: B2 DNA 1 with C1G, C2T, A139C, G140C, C149A, C150G
B6: intron_8499: 150 nt synthetic intron, 89/95/102/107 AtoG branchpoint ablation; SEQ ID NO 61/69 (nucleic acid)
DNA 1: B2 DNA 1 with C1G, C2T, A90G, A96G, A103G, A108G, C149A, C150G
DNA 2: B2 DNA 1 with C1G, C2T, A90G, A96G, A103G, A108G, C149A, C150G
B7: intron_9600: 158 nt synthetic intron, insertion 89_TACTAACA consensus branchpoint; SEQ ID NO 62/70 (nucleic acid)
DNA 1: GTGAGTCGCCCCCTTCCTCTGCTCCGAGAGGGAAATGGGAATTAGGGTGGTGGCAGAGCCCAAAGAGGCCTTGTAGGCCATGGTAAGGCTACTAACAATTTCTATGTTTTATTTTACTTTGTCTTTATCCTAAAATGCCATTGGCAAGTTTATTGCAG
DNA 2: B7 DNA 1

Tested on: SF3B1-mutant K562 cells
Experiment: Mini-screen: pooled synthetic intron mini-library in HSV-TK, GCV treatment, full-length intron sequencing from genomic DNA
Assay type: cell-based
Conditions: SF3B1-mutant vs WT K562; GCV, six days
Text: (§1) Therefore, a massively parallel splicing assay was developed to map and functionally interrogate key sequence features within the synthetic intron. First, a pilot mini-library of eight synthetic introns was synthesized, seven of which were much shorter (lengths of 100-158 nt) than the parent synthetic intron (synMTERFD3i1-250), and each with one or more perturbations to potentially critical features (FIG. 2E). This mini-library was cloned into HSV-TK, introduced into WT or SF3B1-mutant K562 cells with a lentiviral vector at a low multiplicity of infection, and treated with GCV. Relative depletion of each construct was measured by high-throughput sequencing of the entire introns from genomic DNA after six days of treatment (TABLE 1).
(§2) Each synthetic intron used in the mini-library was ordered individually as a gBlock (Integrated DNA Technologies), consisting of the desired intron flanked by homology arms for cloning (5′ arm: […] (SEQ ID NO:158); 3′ arm: […] (SEQ ID NO:159; TABLE 3). The gBlocks were then mixed in equal proportions before being cloned into hPGK-PuroR-P2A-HSV-TK using a previously published strategy for pooled cloning (Thomas, J. D. et al. RNA isoform screens uncover the essentiality and tumor-suppressor activity of ultraconserved poison exons. Nature genetics 52, 84-94 (2020), incorporated herein by reference in its entirety). This intron mix was then amplified using NEBNext High Fidelity Ready Mix (New England Biolabs) and purified using 1.8×AMPure XP SPRI beads (Beckman Coulter). The backbone for the library was amplified using Q5 polymerase (New England Biolabs). The library was transformed and amplified using Endura ElectroCompetent Cells (Lucigen, 60242-2) and large LB plates. The library was maxiprepped using a Macherey-Nagel MaxiPrep kit (Thermo Fisher Scientific, Cat 740414.10).
(§3) WT or SF3B1-mutant K562 cells were infected with lentivirus encoding the mini-library at an MOI of 0.3 and untreated or treated with GCV (100 ug/mL) for 6 days. Genomic DNA was collected at day 6 and the resulting Illumina libraries were sequenced with 2×150 bp reads (Illumina MiSeq). Depletion/enrichment of each construct was estimated as follows. For each sample, reads were normalized to the total reads mapped. The relative fraction of reads mapping to each intron was then estimated by dividing the numbers of normalized reads mapped to an intron by the total reads mapped in the sample. The standard deviation was calculated using the sample proportion P for each intron (σ=sqrt [P(1−P)/n]). A fold-change was calculated for each intron by dividing the proportion of the intron in the treated GCV samples by the fraction of the intron in the untreated samples. Error propagation was used to estimate the standard deviation. The final relative fold-changes were computed by normalizing fold-changes such that the fold-change of synMTERFD3i1-250 in the pilot screen was identical to the experimentally measured fold-change in a single-construct experiment (FIG. 2C, 100 μg/mL of GCV).

B1 was tested, and the “depletion / mutation responsiveness in mini-screen” value was “markedly depleted in SF3B1-mutant, but not WT, cells”.

Same assay, conditions: genotype K700E (SF3B1+/K700E) K562; GCV 100 ug/mL; day 6; vector hPGK-PuroR-P2A-HSV-TK

First: B1
Second: B2
The “fold-change (estimated fold-change in intron abundance in gDNA)” value (shortened to “fold-change”) of the first is lower: 0.23 for the first, 0.8961 for the second.

Going from B3 to B4, the “fold-change” value rises from 0.4996 to 0.7611.

First: B5
Second: B6
The “fold-change” value of the first is lower: 0.2637 for the first, 0.2767 for the second.

In the case of B7, the “fold-change” value is reported as 0.2356.

Tested on: WT K562 cells
Experiment: as above
Assay type: cell-based
Conditions: genotype WT (SF3B1+/+) K562; GCV 100 ug/mL; day 6; vector hPGK-PuroR-P2A-HSV-TK
Text: as §1, §2, §3

First: B1
Second: B2
The “fold-change” value of the first is lower: 0.96 for the first, 1.226 for the second.

Going from B3 to B4, the “fold-change” value falls from 1.279 to 1.042.

First: B5
Second: B6
The “fold-change” value of the first is lower: 0.3305 for the first, 1.15 for the second.

With B7 the “fold-change” value was 1.112.

Tested on: isogenic WT or SF3B1-mutant K562 cells
Experiment: Fluorescent reporter (mEmerald interrupted by synthetic intron, mCardinal control), flow cytometry
Assay type: cell-based
Conditions: not given
Text: These six endogenous introns served as starting points for the development of synthetic introns that functioned as compact and modular molecular switches. […] These choices were guided by the increased complexity of the 3′ss versus 5′ss, SF3B1's functional role in 3′ss recognition, and the importance of exon length in splicing. Each split mEmerald sequence was cloned into a vector with constitutive expression of the non-overlapping fluorophore mCardinal (FIG. 1E). The resulting vectors permitted quantitative assessment of mutation-dependent protein production by measuring the ratio of mEmerald to mCardinal in cells with or without an SF3B1 mutation via flow cytometry.
Each construct was transfected into isogenic WT or SF3B1-mutant K562 cells and mutation-dependent splicing and protein production was measured. […] Mutation-dependent protein production arose from mutation-dependent splicing changes, as designed (FIGS. 6G and 6H). These proof-of-principle studies confirmed the feasibility of using synthetic introns for mutation-dependent gene expression. […]

B1 gave a mutation-dependent specificity of 2 fold.

Tested on: isogenic WT or SF3B1-mutant K562 cells
Experiment: Single-construct cell viability (CellTiter-Glo, ATP) of cells expressing HSV-TK with synthetic intron, GCV treatment
Assay type: cell-based
Conditions: SF3B1-mutant K562 cells; 0-100 μg/mL GCV, 3 days
Text: This split HSV-TK sequence or an intronless HSV-TK was cloned into a lentiviral expression vector. Isogenic WT or SF3B1-mutant K562 cells were infected. Positive integrants were selected and treated with GCV (FIG. 2B).
Stable cell lines were made by transducing K562 or MCF10A cells with lentivirus at multiplicities of infection (MOIs) of 1 (FIGS. 2C, 2G, and 2H), 0.3 (mini-library), and 0.1 (full library). Positive integrants were selected by treating with puromycin (hPGK-PuroR-P2A-HSV-TK) or flow sorting for mCherry (hPGK-HSV-TK-P2A-mCherry).
Cell viability was measured for single-construct experiments in cell culture by the CellTiter-Glo Luminescent Cell Viability Assay (Promega). For FIG. 2C, K562 cells expressing HSV-TK with the indicated synthetic introns were seeded at a density of 10,000 cells/100 μL/well in a 96-well plate in biological triplicate, and then treated with 0-100 μg/mL GCV or untreated (negative control). Viability measured after 3 days of treatment. For FIG. 2G, K562 cells expressing HSV-TK with the indicated synthetic introns were seeded at a density of 5,000 cells/100 μL/well in 96-well plate in biological triplicate, and then treated with 100 μg/mL GCV or PBS (negative control). Viability was measured after 11 days of treatment.

B1 was tested, and the “viability upon GCV treatment” value was “a rapid and dose-dependent loss of viability, indistinguishable to that caused by intronless HSV-TK”.

Same assay, conditions: WT K562 cells; 0-100 μg/mL GCV, 3 days

With B1 the “viability upon GCV treatment” value was “no significant differences in viability from untransduced cells”.
